Tested on: T1, His-ChvI(D52E) D52E (Agrobacterium tumefaciens C58), ORF:0a874367
T1 sequence: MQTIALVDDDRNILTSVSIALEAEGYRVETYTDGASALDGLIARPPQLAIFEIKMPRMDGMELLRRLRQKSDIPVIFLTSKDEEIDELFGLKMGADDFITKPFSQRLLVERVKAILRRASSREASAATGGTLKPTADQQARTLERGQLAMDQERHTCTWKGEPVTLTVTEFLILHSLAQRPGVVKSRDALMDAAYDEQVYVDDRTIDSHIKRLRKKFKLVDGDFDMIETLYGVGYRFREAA
Experiment: EMSA

## TCCGCATCCATGGGAATAGCAGTCTTTCCCCACCTTGCCTCCACGCTGGAGCAGCTTTTCGACAGGGCAGACTATGCCCTCTACCACGCCAAGAAAACCCGGCGTGGCGATGCCGTTCTGTTCGATGCGGAACACGAAAAGCAGATCAATATCGAAGCCCGCATTGAGCATCTGCTCAAGCAGAGCGATCTGAAAAACGAACTTTCGGTGATGTTTCAGCCGATCGTGGATATACGCGACGGAAGGATC (double strand) [atu4353 coding region control fragment]
  binding: no binding

## TCGAGGAGTAGTCTATCCCCAGAAAATAGTAATGGATTTTTTGTAGTTACTTCCCTTACGTGAGGCTATTAATCAGACAGACTTATTCAAAATGTGTCTAAATTGTGGCGTCTACTCCCTAATCTAATCTGATAAAAAATAAACTTCGGGGTGGACAACCCGGTTTCATCATCATAGTTATTCCACGTCACGTTGTGGAATGAACCCGGGCAGGAGGCTCATTGCATGTCGGTACCCC (double strand) [imp-hcp intergenic region (T6SS regulatory region), 230 bp]
  binding: binds

Reference: publication PMC3460628
